From article PMC3534050, “Simultaneous Single-Sample Determination of NMNAT Isozyme Activities in Mouse Tissues” (PLoS ONE, 2012)

What was measured:
purified protein = substrate: Nc1ncnc2c1ncn2[C@@H]1O[C@H](COP(=O)(O)OP(=O)(O)OP(=O)(O)O)[C@@H](O)[C@H]1O; assay: purified protein; conditions: co-substrate NMN, ATP 25–175 µM, HEPES/KOH pH 7.5, MgCl2, 37°C
[1] = substrate: NC(=O)c1ccc[n+]([C@@H]2O[C@H](COP(=O)(O)O)[C@@H](O)[C@H]2O)c1; assay: C18-HPLC of NAD formed, nonlinear fit; format: biochemical, Mus musculus; conditions: co-substrate ATP, NMN 5–100 µM, HEPES/KOH pH 7.5, MgCl2, 37°C
[2] = substrate: NC(=O)c1ccc[n+]([C@@H]2O[C@H](COP(=O)(O)O)[C@@H](O)[C@H]2O)c1; assay: C18-HPLC of NAD formed, nonlinear fit; format: biochemical, Mus musculus; conditions: co-substrate ATP, NMN 5–100 µM, HEPES/KOH pH 7.5, MgCl2, 37°C; remark: listed apart in the source
Description: (§1) C18-HPLC of NAD formed, nonlinear fit on mNMNAT3

[3] = substrate: Nc1ncnc2c1ncn2[C@@H]1O[C@H](COP(=O)(O)OP(=O)(O)OP(=O)(O)O)[C@@H](O)[C@H]1O; assay: C18-HPLC of NAD formed, nonlinear fit; format: biochemical, Mus musculus; conditions: co-substrate NMN, ATP 25–175 µM, HEPES/KOH pH 7.5, MgCl2, 37°C
Description: as §1

[4] = substrate: NC(=O)c1ccc[n+]([C@@H]2O[C@H](COP(=O)(O)O)[C@@H](O)[C@H]2O)c1; assay: C18-HPLC of NAD formed, nonlinear fit; format: biochemical, Mus musculus; conditions: co-substrate ATP, NMN 5–100 µM, HEPES/KOH pH 7.5, MgCl2, 37°C; remark: listed apart in the source
Description: (§2) C18-HPLC of NAD formed, nonlinear fit on mNMNAT1

[5] = substrate: Nc1ncnc2c1ncn2[C@@H]1O[C@H](COP(=O)(O)OP(=O)(O)OP(=O)(O)O)[C@@H](O)[C@H]1O; assay: C18-HPLC of NAD formed, nonlinear fit; format: biochemical, Mus musculus; conditions: co-substrate NMN, ATP 25–175 µM, HEPES/KOH pH 7.5, MgCl2, 37°C; remark: listed apart in the source
Description: as §2

B1: mNMNAT2 (Mus musculus) (protein)
chain: MTETTKTHVILLACGSFNPITKGHIQMFERARDYLHKTGRFIVIGGIVSPVHDSYGKQGLVSSRHRLIMCQLAVQNSDWIRVDPWECYQDTWQTTCSVLEHHRDLMKRVTGCILSNVNTPSMTPVIGQPQHENTQPIYQNSNVPTKPTAAKILGKVGESLSRICCVRPPVERFTFVDENANLGTVMRYEEIELRILLLCGSDLLESFCIPGLWNEADMEVIVGDFGIVVVPRDAADTDRIMNHSSILRKYKNNIMVVKDDINHPMSVVSSTKSRLALQHGDGHVVDYLSQPVIDYILKSQLYINASG
notes: predicted mass 36668 Da
Q: What does the source list for B1?
A: Km (purified protein): 82.0 ± 15.1 µM; kcat (purified protein): 2.33 s⁻¹; kcat/Km (purified protein): 30000 M⁻¹ s⁻¹; Km [1]: 38.5 ± 13.5 µM; kcat [1]: 2.87 ± 0.5 s⁻¹; kcat/Km [1]: 70000 M⁻¹ s⁻¹

B2: mNMNAT3 (Mus musculus) (protein)
chain: MKNRIPVVLLACGSFNPITNMHLRLFEVARDHLHQTGRYQVIEGIISPVNDSYGKKDLVASHHRVAMARLALQTSDWIRVDPWESEQAQWMETVKVLRHHHRELLRSSAQMDGPDPSKTPSASAALPELKLLCGADVLKTFQTPNLWKDTHIQEIVEKFGLVCVSRSGHDPERYISDSPILQQFQHNIHLAREPVLNEISATYVRKALGQGQSVKYLLPEAVITYIRDQGLYINDGSWKGKGKTG
notes: predicted mass 29866 Da
Q: For B2, which Km [2] is on record?
A: Its Km is 117.6 ± 4.6 µM.

Q: What about the kcat [2] of the same protein?
A: The kcat was 0.75 ± 0.02 s⁻¹.

Q: What about the kcat/Km [2] of the same protein?
A: The kcat/Km was 10000 M⁻¹ s⁻¹.

Q: What about the Km [3] of the same protein?
A: Its Km is 39.0 ± 5.9 µM.

Q: And the kcat [3]?
A: The kcat was 0.74 ± 0.04 s⁻¹.

Q: What about the kcat/Km [3] of the same protein?
A: The kcat/Km was 20000 M⁻¹ s⁻¹.

B3: mNMNAT1 (Mus musculus) (protein)
chain: MDSSKKTEVVLLACGSFNPITNMHLRLFELAKDYMHATGKYSVIKGIISPVGDAYKKKGLIPAHHRIIMAELATKNSHWVEVDTWESLQKEWVETVKVLRYHQEKLATGSCSYPQSSPALEKPGRKRKWADQKQDSSPQKPQEPKPTGVPKVKLLCGADLLESFSVPNLWKMEDITQIVANFGLICITRAGSDAQKFIYESDVLWRHQSNIHLVNEWITNDISSTKIRRALRRGQSIRYLVPDLVQEYIEKHELYNTESEGRNAGVTLAPLQRNAAEAKHNHSTL
notes: predicted mass 34518 Da
Q: Which results are given for B3?
A: Km [4]: 25.2 ± 5.6 µM; kcat [4]: 15.5 ± 1.3 s⁻¹; kcat/Km [4]: 610000 M⁻¹ s⁻¹; Km [5]: 33.5 ± 5.1 µM; kcat [5]: 15 ± 0.7 s⁻¹; kcat/Km [5]: 450000 M⁻¹ s⁻¹
